Reference: patent US8034572B2, “Receptor for GDNF family ligands” (priority 2006, dated 2011)

Legend:
[1] = SPR (IAsys): GFLs interaction with heparin-BSA cuvette; assay type: binding
Method: (§1) The affinities of GFLs for heparin and heparin-like molecules (e.g. syndecan-3) were determined by plasmon surface resonance using the IAsys system (Affinity Sensors, Cambridge, UK). Planar aminosilane cuvettes (Affinity Sensors) were used for protein coupling to avoid problems with mass transport, which occur frequently with matrix surfaces. In the initial approach, heparin-BSA was immobilized to the cuvette surface using the manufacturer's instructions and different ligand concentrations were used to determine association (ka) and dissociation (kdis) rates using the IAsys Fastfit software. The dissociation constant Kd was determined from the binding dynamics as […], or from equilibrium response (R) using a simple Langmuir fit: R=(Rmax*C)/(Kd+C), where C is the ligand concentration. […] The dissociation constants were determined from binding dynamics and equilibrium response. The same cuvettes were used to test binding of heparan sulfate proteoglycan syndecan-3, which was purified as an ectodomain from early postnatal rat brains by HB-GAM affinity chromatography (Raulo et al., 1994).
(§2) Binding was analyzed using IAsys cuvettes with immobilized heparin-BSA or GFLs. The dissociation constant Kd was determined from dynamics of association and dissociation (Kd=kdis/ka), or from equilibrium response R (R=(Rmax*C)/(Kd+C), where C is ligand concentration).

[2] = SPR (IAsys): heparin interaction with GFLs cuvette; assay type: binding; conditions: GFLs cuvette
Method: as §1, §2

syndecan-3 ectodomain = target: T1, syndecan-3 ectodomain (Rattus norvegicus, UniProt P33671); experiment: SPR (IAsys): syndecan-3 ectodomain interaction with GFLs cuvette; assay type: binding; conditions: syndecan-3 ectodomain in solution
T1 construct: purified as an ectodomain from early postnatal rat brains; from tissue; host or cells: early postnatal rat brain
Method: as §1, §2

SHEP cells = experiment: SHEP cell adhesion and spreading assay on immobilized proteins; assay type: cell-based, human; conditions: protein immobilized on plastic microplate
Method: Cell adhesion assays were essentially performed as described elsewhere (Weinacker et al., 1994). To prepare protein-coated surfaces the protein of interest (10 μg/ml in PBS) was applied to 96-well ELISA (Greiner) plates or to glass cover slips for 12-18 hours at +4° C. After incubation, the surfaces were washed with PBS and blocked with 1% globulin-free BSA for two hours. Some GDNF coated surfaces were incubated with 20 μg/ml of G-90 (Amgen) GDNF function-blocking antibodies (Xu et al., 1998) for 2 hours at room temperature.
Subconfluent SHEP cells were harvested in PBS supplemented with 10 mM EDTA for 5 min at 37° C. Cells were washed with incubation buffer (RPMI 1640, 0.2% BSA, 15 mM HEPES pH 7.2) and 10000-40000 cells/well plated on the protein coated surface. Plates were centrifuged for 5 min at 10 g and incubated for one hour at 37° C. in 5% CO2. After incubation cells were washed with PBS, fixed with methanol supplemented with crystal violet for 15 min at room temperature and washed again with PBS. The remaining cells were counted using a Leica DMIRB inverted microscope with 10× objective in 5 fields per well.
Some cells were pretreated with heparinase III, PI-PLC (see above), 0.3 U/ml chodroitinase ABC for one hour at 37° C., 5% CO2, or with 20 μg/ml of NCAM blocking antibodies (AB5032, Chemicon Inc.) for 15-30 min on ice.
After one hour of incubation in serum-free medium unattached cells were removed by washing. The remaining cells were stained and counted on Leica DMIRB inverted microscope with a 10× objective in 5 fields per well and the resulting cell number was calculated for the whole well.
Live SHEP cells spreading on immobilized GDNF were imaged for 20 minutes using the Till imaging system with an Imago-QE digital camera (Till Photonics) equipped with heating (+37° C.) and CO2 supply (5%) chambers.

Src family kinase = experiment: Src kinase phosphorylation assay in SHEP cells; assay type: cell-based, human; conditions: SHEP cells plated on immobilized protein
Method: SHEP cells from 10-cm plates were harvested as described above and plated on GDNF-coated 35-mm Petri dishes. Cells were allowed to sediment for 10 min at room temperature and then transferred to 37° C. for additional 15 min. Cells were lysed in the lysis buffer (TBS, 1% Triton X-100, 0.5% deoxycholic acid, 0.1% SDS, 10% glycerol, 1 mM Na3VO4, 1 mM PMSF and Complete protease inhibitor mixture). Lysates were analyzed on 10% SDS-PAGE and western blots were stained with anti-pY^418Src or anti-pp60Src antibodies (Biosource). Some cells were pretreated with heparinase III or PI-PLC.

[3] = system: rat embryonic hippocampal neurons; experiment: Neurite outgrowth assay in E17 rat hippocampal neurons; assay type: cell-based
Method: Hippocampi were dissected from E17 embryonic rat brains under the microscope and transferred to the preparation media (HBBS without Ca^2+ and Mg^2+ supplemented with 1 mM sodium pyruvate (Gibco) and buffered by 10 mM Hepes pH 7.2), then partially digested by papain and triturated in the preparation media supplemented with DNase I. Cells were washed with HBBS containing Ca^2+ and Mg^2+ and transferred to the growth media (Neurobasal media with B27 supplement, 2 mM L-glutamine, 25 μM glutamic acid and penicillin and streptomycin (Gibco)). For enzymatic treatments neurons were kept in the growth media supplemented with 0.2% BSA at +37° C. for one hour. After the treatment cells in the same media were seeded on the protein-coated cover slips (see above) and after 10 min, the media was changed for B27-free media. Neurons were incubated at +37° C., 5% CO2 for 18 hours.
For immunocytochemistry neurons were washed with PBS and fixed with 4% PFA, permeabilized with 0.1% Triton X-100 and stained with rabbit polyclonal antiserum to Protein Gene Product 9.5 (Affiniti), neuron-specific Class III tubulin-βIII clone Tuj1 antibodies (BABCO) or with antibodies against the neurofilament triplet, 13AA8 (Arumäe et al., 1993). Secondary antibodies were goat anti-rabbit or anti-mouse Alexa488-conjugated (Molecular Probes).
The immunostained cultures were viewed using the ×20 objective of a Zeiss Axioplan 2 fluorescent microscope (Zeiss). Neurons with at least two times longer than cell body diameter processes were considered process-bearing. Three cover slips were used in parallel and 100 neurons per cover slip were counted. Results were derived from 3 to 5 independent experiments.

T1 sequence (P33671 45-387 limits assumed): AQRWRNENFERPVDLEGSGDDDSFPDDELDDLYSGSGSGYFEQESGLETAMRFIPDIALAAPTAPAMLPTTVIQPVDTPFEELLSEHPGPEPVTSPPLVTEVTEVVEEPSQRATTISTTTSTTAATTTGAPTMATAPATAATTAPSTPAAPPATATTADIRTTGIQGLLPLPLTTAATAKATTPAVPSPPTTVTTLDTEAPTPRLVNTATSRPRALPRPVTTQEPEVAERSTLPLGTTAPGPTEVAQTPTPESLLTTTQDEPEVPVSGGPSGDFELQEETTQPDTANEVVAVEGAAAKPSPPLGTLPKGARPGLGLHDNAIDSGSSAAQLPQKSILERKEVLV

- Kd = kdis/ka ([1]; from dynamics): 47.3 ± 9.9 nM
- Kd ([1]; from equilibrium response): 51.3 ± 3.6 nM
- Kd = kdis/ka ([2]; from dynamics): 22.7 ± 2.7 nM
- Kd ([2]; from equilibrium response, read-out: Kd (equilibrium)): 12.3 ± 3.4 nM
- ka (×10^−5) (M^−1s^−1) (syndecan-3 ectodomain): 13 ± 2 (×10^−5) M^−1s^−1
B1: GDNF: Glial cell line-derived neurotrophic factor, secreted growth factor, GDNF family ligand (protein)
chain: SPDKQMAVLPRRERNRQAAAANPENSRGKGRRGQRGKNRGCVLTAIHLNVTDLGLGYETKEELIFRYCSGSCDAAETTYDKILKNLSRNRRLVSDKVGQACCRPIAFDDDLSFLDDNLVYHILRKHSAKRCGCI
- ka (×10^−5) (M^−1s^−1) ([1]; GFL in solution): 3.7 (×10^−5) M^−1s^−1
- kdis ([1]; GFL in solution): 0.017 s⁻¹
- ka (×10^−5) (M^−1s^−1) ([2]; heparin in solution): 15 (×10^−5) M^−1s^−1
- kdis ([2]; heparin in solution): 0.034 s⁻¹
- adherence and spreading of SHEP cells on immobilized protein (SHEP cells): induced adherence and spreading
- activation of Src family kinases (pY^418Src Western blot) (Src family kinase): induces HSPG-dependent activation of Src family kinases
- neurite outgrowth on immobilized protein ([3]; E17 rat hippocampal neurons, 18 hours): stimulated neurite outgrowth
- neurite outgrowth with soluble protein ([3]; soluble GDNF added to neurons grown on BSA-matrix): failed to induce neurites
